Earlier results, collected in publication PMC3164524.

Biological target: pYAQL peptide
Assay: SPR

Substance: SHP-2 N-SH2 (from UniProt Q06124)
- Kd: 260 nM
